Source: publication PMC4749557

Key:
[1] = molecular target: Mb(hPRDM14_S14) displayed on the yeast surface; test: yeast surface display; monobodies on the yeast surface with 50 nM of hPRDM14 or a homologue
[2] = molecular target: Mb(hPRDM14_S14) displayed on the yeast surface; test: yeast surface display; KD of monobody clones displayed on yeast for hPRDM14
[3] = molecular target: 12 clones that bound to human PRDM14 (monobodies; the members other than Mb(S4) and Mb(S14) are not given); test: as above

- fold stronger binding than hPRDM6 and hPRDM12 [1]: > 5 fold
- Kd [2]: < 100 nM
- Kd [3]: < 100 nM
B1: human PRDM14 (residues 238–487) (domain or fragment)
chain: LPQTLDKDSLQLPEGLCLMQTVFGEVPHFGVFCSSFIAKGVRFGPFQGKVVNASEVKTYGDNSVMWEIFEDGHLSHFIDGKGGTGNWMSYVNCARFPKEQNLVAVQCQGHIFYESCKEIHQNQELLVWYGDCYEKFLDIPVSLQVTEPGKQPSGPSEESAEGYRCERCGKVFTYKYYRDKHLKYTPCVDKGDRKFPCSLCKRSFEKRDRLRIHILHVHEKHRPHKCSTCGKCFSQSSSLNKHMRVHSGDR
modifications: biotin (biotin-acceptor tag)
